# Results as given in US20170343560A1.
# Assays:
# [1] = target: human Fcgamma receptor I (human) (UniProt P12314); assay: SPR BIAcore T100, Bi-huFcyRI on SA-CAP chip, antibody 10 ug/mL injected 60 s, reference-subtracted response after injection
# [2] = target: bispecific effector function silent anti-ANG2/VEGF antibody; assay: bridging ELISA (Ex. 2), ANG2 bridges Bi-drug and Dig-drug; ANG2 6.25 ng/mL in cynomolgus pool plasma; cut off 0.05
# [3] = target: bispecific effector function silent anti-ANG2/VEGF antibody; assay: bridging ELISA (Ex. 2), ANG2 bridges Bi-drug and Dig-drug; ANG2 12.5 ng/mL in cynomolgus pool plasma; cut off 0.05
# [4] = target: bispecific effector function silent anti-ANG2/VEGF antibody; assay: bridging ELISA (Ex. 2), ANG2 bridges Bi-drug and Dig-drug; ANG2 1.56 ng/mL in cynomolgus pool plasma; cut off 0.05
# [5] = target: bispecific effector function silent anti-ANG2/VEGF antibody; assay: bridging ELISA (Ex. 2), ANG2 bridges Bi-drug and Dig-drug; ANG2 3.13 ng/mL in cynomolgus pool plasma; cut off 0.05
# [6] = target: bispecific effector function silent anti-ANG2/VEGF antibody; assay: bridging ELISA (Ex. 2), ANG2 bridges Bi-drug and Dig-drug; ANG2 0.0489 ng/mL in cynomolgus pool plasma; cut off 0.05
# [7] = target: bispecific effector function silent anti-ANG2/VEGF antibody; assay: bridging ELISA (Ex. 2), ANG2 bridges Bi-drug and Dig-drug; ANG2 0.0977 ng/mL in cynomolgus pool plasma; cut off 0.05
# [8] = target: bispecific effector function silent anti-ANG2/VEGF antibody; assay: bridging ELISA (Ex. 2), ANG2 bridges Bi-drug and Dig-drug; ANG2 0.195 ng/mL in cynomolgus pool plasma; cut off 0.05
# [9] = target: bispecific effector function silent anti-ANG2/VEGF antibody; assay: bridging ELISA (Ex. 2), ANG2 bridges Bi-drug and Dig-drug; ANG2 25 ng/mL in cynomolgus pool plasma; cut off 0.05
# [10] = target: bispecific effector function silent anti-ANG2/VEGF antibody; assay: bridging ELISA (Ex. 2), ANG2 bridges Bi-drug and Dig-drug; ANG2 100 ng/mL in cynomolgus pool plasma; cut off 0.05
# [11] = target: bispecific effector function silent anti-ANG2/VEGF antibody; assay: bridging ELISA (Ex. 2), ANG2 bridges Bi-drug and Dig-drug; ANG2 0.781 ng/mL in cynomolgus pool plasma; cut off 0.05
# [12] = target: bispecific effector function silent anti-ANG2/VEGF antibody; assay: bridging ELISA (Ex. 2), ANG2 bridges Bi-drug and Dig-drug; ANG2 0.391 ng/mL in cynomolgus pool plasma; cut off 0.05
# [13] = target: bispecific effector function silent anti-ANG2/VEGF antibody; assay: bridging ELISA (Ex. 2), ANG2 bridges Bi-drug and Dig-drug; ANG2 50 ng/mL in cynomolgus pool plasma; cut off 0.05
# [14] = target: bispecific effector function silent anti-ANG2/VEGF antibody; assay: bridging ELISA (Ex. 2), VEGF bridges Bi-drug and Dig-drug; VEGF 25 ng/mL in cynomolgus pool plasma
# [15] = target: bispecific effector function silent anti-ANG2/VEGF antibody; assay: bridging ELISA (Ex. 2), VEGF bridges Bi-drug and Dig-drug; VEGF 12.5 ng/mL in cynomolgus pool plasma
# [16] = target: bispecific effector function silent anti-ANG2/VEGF antibody; assay: bridging ELISA (Ex. 2), VEGF bridges Bi-drug and Dig-drug; VEGF 50 ng/mL in cynomolgus pool plasma
# [17] = target: bispecific effector function silent anti-ANG2/VEGF antibody; assay: bridging ELISA (Ex. 2), VEGF bridges Bi-drug and Dig-drug; VEGF 0.195 ng/mL in cynomolgus pool plasma; cut off 0.05
# [18] = target: bispecific effector function silent anti-ANG2/VEGF antibody; assay: bridging ELISA (Ex. 2), VEGF bridges Bi-drug and Dig-drug; VEGF 0.781 ng/mL in cynomolgus pool plasma
# [19] = target: bispecific effector function silent anti-ANG2/VEGF antibody; assay: bridging ELISA (Ex. 2), VEGF bridges Bi-drug and Dig-drug; VEGF 100 ng/mL in cynomolgus pool plasma
# [20] = target: bispecific effector function silent anti-ANG2/VEGF antibody; assay: bridging ELISA (Ex. 2), VEGF bridges Bi-drug and Dig-drug; VEGF 3.13 ng/mL in cynomolgus pool plasma
# [21] = target: bispecific effector function silent anti-ANG2/VEGF antibody; assay: bridging ELISA (Ex. 2), VEGF bridges Bi-drug and Dig-drug; VEGF 6.25 ng/mL in cynomolgus pool plasma
# [22] = target: bispecific effector function silent anti-ANG2/VEGF antibody; assay: bridging ELISA (Ex. 2), VEGF bridges Bi-drug and Dig-drug; VEGF 1.56 ng/mL in cynomolgus pool plasma
# [23] = target: bispecific effector function silent anti-ANG2/VEGF antibody; assay: bridging ELISA (Ex. 2), VEGF bridges Bi-drug and Dig-drug; VEGF 0.0489 ng/mL in cynomolgus pool plasma; cut off 0.05
# [24] = target: bispecific effector function silent anti-ANG2/VEGF antibody; assay: bridging ELISA (Ex. 2), VEGF bridges Bi-drug and Dig-drug; VEGF 0.391 ng/mL in cynomolgus pool plasma
# Chain of UniProt P12314 (P12314 16-288 limits assumed): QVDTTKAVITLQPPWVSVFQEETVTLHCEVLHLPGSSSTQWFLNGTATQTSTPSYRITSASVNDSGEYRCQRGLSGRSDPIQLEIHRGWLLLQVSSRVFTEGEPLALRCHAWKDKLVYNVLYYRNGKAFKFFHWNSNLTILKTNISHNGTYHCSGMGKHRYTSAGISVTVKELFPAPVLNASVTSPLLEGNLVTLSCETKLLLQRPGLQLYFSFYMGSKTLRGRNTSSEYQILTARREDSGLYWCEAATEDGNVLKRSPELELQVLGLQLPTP
# Chain of ANG2 (O15123 19-496 limits assumed): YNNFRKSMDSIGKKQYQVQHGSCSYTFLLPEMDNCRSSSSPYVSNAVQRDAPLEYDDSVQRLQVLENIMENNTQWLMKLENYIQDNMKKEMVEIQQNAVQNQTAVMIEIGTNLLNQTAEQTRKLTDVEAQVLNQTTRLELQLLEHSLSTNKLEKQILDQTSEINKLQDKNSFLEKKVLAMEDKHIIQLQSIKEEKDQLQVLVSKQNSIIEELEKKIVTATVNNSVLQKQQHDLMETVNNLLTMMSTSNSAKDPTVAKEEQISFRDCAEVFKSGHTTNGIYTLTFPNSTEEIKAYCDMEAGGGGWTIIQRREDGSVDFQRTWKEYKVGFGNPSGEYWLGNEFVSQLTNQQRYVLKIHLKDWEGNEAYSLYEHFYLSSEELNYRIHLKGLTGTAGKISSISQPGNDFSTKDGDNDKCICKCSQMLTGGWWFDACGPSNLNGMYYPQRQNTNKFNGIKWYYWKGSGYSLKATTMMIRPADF
# Chain of VEGF (P15692 other isoform, or with tags, fused parts or gaps limits assumed): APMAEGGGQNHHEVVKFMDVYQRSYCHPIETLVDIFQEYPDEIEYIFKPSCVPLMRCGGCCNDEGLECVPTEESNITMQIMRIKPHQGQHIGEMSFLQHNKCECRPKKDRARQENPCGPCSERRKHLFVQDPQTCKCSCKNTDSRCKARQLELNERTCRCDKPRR
substance,measurement,setting,value
human IgG1 with L234A L235A mutations (antibody),signal (RU),[1],4 RU
ANG2 (from UniProt O15123 19-496) (ligand),OD 405 nm,[2],0.031 OD 405 nm
same,OD 405 nm,[3],0.038 OD 405 nm
same,OD 405 nm,[4],0.024 OD 405 nm
same,OD 405 nm,[5],0.028 OD 405 nm
same,OD 405 nm,[6],0.022 OD 405 nm
same,OD 405 nm,[7],0.022 OD 405 nm
same,OD 405 nm,[8],0.024 OD 405 nm
same,OD 405 nm,[9],0.052 OD 405 nm
same,OD 405 nm,[10],0.14 OD 405 nm
same,OD 405 nm,[11],0.024 OD 405 nm
same,OD 405 nm,[12],0.022 OD 405 nm
same,OD 405 nm,[13],0.076 OD 405 nm
human IgG4 (antibody),signal (RU),[1],20.2 RU
mouse IgG2a (antibody),signal (RU),[1],31.1 RU
human IgG1 with P329G L243A L235A mutations (antibody),signal (RU),[1],1.5 RU
human IgG1 (antibody),signal (RU),[1],139 RU
human IgG4 with S228P L235E mutations (antibody),signal (RU),[1],2.6 RU
VEGF (from UniProt P15692 27-191) (ligand),OD 405 nm,[14],1.69 OD 405 nm
same,OD 405 nm,[15],0.921 OD 405 nm
same,OD 405 nm,[16],2.34 OD 405 nm
same,OD 405 nm,[17],0.039 OD 405 nm
same,OD 405 nm,[18],0.083 OD 405 nm
same,OD 405 nm,[19],2.83 OD 405 nm
same,OD 405 nm,[20],0.274 OD 405 nm
same,OD 405 nm,[21],0.51 OD 405 nm
same,OD 405 nm,[22],0.138 OD 405 nm
same,OD 405 nm,[23],0.025 OD 405 nm
same,OD 405 nm,[24],0.058 OD 405 nm
mouse IgG1 (antibody),signal (RU),[1],3 RU
human IgG1 P329G L234A L235A I253A H310A H434A mutations (antibody),signal (RU),[1],1.8 RU
human IgM (from UniProt P01871 1-453) (antibody),signal (RU),[1],5.2 RU
